The values that follow are results of earlier work, collected in PMC10875074.

For the series, the target named is CD155 (poliovirus receptor, Necl-5) (Homo sapiens) (UniProt P15151).
UniProt P15151, sequence (P15151 21-343): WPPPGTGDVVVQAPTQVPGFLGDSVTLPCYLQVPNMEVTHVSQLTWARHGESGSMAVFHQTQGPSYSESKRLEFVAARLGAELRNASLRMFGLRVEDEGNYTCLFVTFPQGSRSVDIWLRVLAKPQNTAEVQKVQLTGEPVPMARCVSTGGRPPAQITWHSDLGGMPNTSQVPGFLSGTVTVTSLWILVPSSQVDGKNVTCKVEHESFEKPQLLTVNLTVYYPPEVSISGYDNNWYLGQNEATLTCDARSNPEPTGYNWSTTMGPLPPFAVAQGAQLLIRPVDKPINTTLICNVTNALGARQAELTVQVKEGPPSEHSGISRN

The Kd is the constant that tells how readily two partners part at equilibrium. TIGIT (from UniProt Q495A1): the Kd is 2 nM.
